From PMC4288923

Assays:
[1] = target: Slr1270 protein from Synechocystis 6803, refolded, C-terminal His tag (Synechocystis 6803); experiment: SEC
[2] = target: Slr1270 protein from Synechocystis 6803, refolded, C-terminal His tag (Synechocystis 6803); experiment: native gel or EMSA
[3] = target: Slr1270 protein from Synechocystis 6803, refolded, C-terminal His tag (Synechocystis 6803); experiment: SDS-PAGE without boiling

Measured: stoichiometry N

Slr1270 protein from Synechocystis 6803, refolded, C-terminal His tag (natural protein)
3: all assays above
